Patent publication US20160347827A1

B1: murine 5B3 monoclonal antibody (antibody, V domains shown)
VH: EVQLVESGGGLVKPGGSLKLSCAASGFTFSSYDMSWVRQTPEKRLEWVAMISSGGSYSYYPDSVKGRFTISRDNAKNTLYLQMSSLRSEDTAMYYCARQGDYAWFAYWGQGTLVTVS
VL: DIQMTQSPASQSASLGESVTITCLASQTIGTWLAWYQQKPGKSPQLLIYAATSLADGVPSRFSGSGSGTKFSFKISSLQAEDFVSYYCQQFYSTPFTFGGGTKLEIKR
B2: humanized 5B3.1 IgG1 (antibody, V domains shown)
VH: EVQLVESGGGLVKPGGSLRLSCAASGFTFSSYSMSWVRQAPGKGLEWVAMISSGGSYSYYADSVKGRFTISRDNSKNTLYLQMNSLRAEDTAVYYCARQGDYAWFDIWGQGTLVTVS
VL: DIQMTQSPSSLSASVGDRVTITCLASQTIGTWLAWYQQKPGKAPKLLIYAATSLADGVPSRFSGSGSGTDFTLTISSLQPEDFATYYCQQFYSTPFTFGGGTKLEIKR
B3: humanized 5B3 IgG1 (antibody, V domains shown)
VH: EVQLVESGGGLVKPGGSLRLSCAASGFTFSSYDMSWVRQAPGKGLEWVAMISSGGSYSYYPDSVKGRFTISRDNSKNTLYLQMNSLRAEDTAVYYCARQGDYAWFAYWGQGTLVTVS
VL: DIQMTQSPSSLSASVGDRVTITCLASQTIGTWLAWYQQKPGKAPKLLIYAATSLADGVPSRFSGSGSGTDFTLTISSLQPEDFATYYCQQFYSTPFTFGGGTKLEIKR

Experiments:
[1] = target: soluble F glycoprotein (sF); test: SPR, Biacore 3000, mAb captured by anti-Fc on CM5, sF in solution
[2] = target: full-length wild-type HeV F glycoprotein (Hendra virus) (UniProt O89342); test: cell-based or functional assay
Sequence of UniProt O89342 (O89342 27-546): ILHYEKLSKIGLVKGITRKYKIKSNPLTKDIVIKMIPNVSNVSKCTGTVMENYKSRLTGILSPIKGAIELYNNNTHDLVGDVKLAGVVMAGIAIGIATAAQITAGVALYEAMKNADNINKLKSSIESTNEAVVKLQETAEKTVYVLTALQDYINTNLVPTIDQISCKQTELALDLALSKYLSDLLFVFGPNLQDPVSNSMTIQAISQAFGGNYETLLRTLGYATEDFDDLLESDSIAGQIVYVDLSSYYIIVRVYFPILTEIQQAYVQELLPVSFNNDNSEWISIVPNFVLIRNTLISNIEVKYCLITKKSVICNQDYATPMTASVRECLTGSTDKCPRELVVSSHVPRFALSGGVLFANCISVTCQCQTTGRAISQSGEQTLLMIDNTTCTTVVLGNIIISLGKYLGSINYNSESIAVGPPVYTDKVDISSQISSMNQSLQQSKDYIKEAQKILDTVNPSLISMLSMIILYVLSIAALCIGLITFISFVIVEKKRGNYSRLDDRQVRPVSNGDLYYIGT

[3] = target: full-length wild-type NiV F glycoprotein (Nipah virus) (UniProt Q9IH63); test: cell-based or functional assay
Sequence of UniProt Q9IH63 (Q9IH63 27-546): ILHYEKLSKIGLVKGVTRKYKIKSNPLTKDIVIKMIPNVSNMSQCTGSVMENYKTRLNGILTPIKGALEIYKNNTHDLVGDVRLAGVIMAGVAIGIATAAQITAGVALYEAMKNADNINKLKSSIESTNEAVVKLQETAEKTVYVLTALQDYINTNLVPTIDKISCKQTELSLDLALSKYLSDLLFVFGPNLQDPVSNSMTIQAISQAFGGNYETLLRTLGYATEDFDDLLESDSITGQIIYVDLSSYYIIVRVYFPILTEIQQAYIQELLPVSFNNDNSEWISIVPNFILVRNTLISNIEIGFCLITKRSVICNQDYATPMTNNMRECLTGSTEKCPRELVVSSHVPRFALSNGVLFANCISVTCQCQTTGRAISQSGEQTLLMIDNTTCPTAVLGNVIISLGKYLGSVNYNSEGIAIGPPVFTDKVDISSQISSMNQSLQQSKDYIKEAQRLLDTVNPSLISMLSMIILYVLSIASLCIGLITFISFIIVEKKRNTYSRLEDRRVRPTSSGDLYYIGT

Binder	Ka [1]	Kd [1]	virus neutralization titer, HeV 100 TCID50 (cpe fully inhibited, Vero cells) [2]	virus neutralization titer, HeV 200 TCID50 (cpe fully inhibited, Vero cells) [2]	virus neutralization titer, NiV 100 TCID50 (cpe fully inhibited, Vero cells) [3]	virus neutralization titer, NiV 200 TCID50 (cpe fully inhibited, Vero cells) [3]	koff [1]	kon [1]
B1	3.7e+08 M⁻¹	2.7 nM						
B2	1.6e+07 M⁻¹	62 nM	> 100 µg/mL	> 100 µg/mL	> 100 µg/mL	> 100 µg/mL	0.0017 s⁻¹	27000 M⁻¹ s⁻¹
B3	7.5e+07 M⁻¹	13 nM	0.78 µg/mL	12.5 µg/mL	1.56 µg/mL	3.12 µg/mL	0.00033 s⁻¹	25000 M⁻¹ s⁻¹
